Test results as given in paper PMC10540216, “Activity Guided Azide-methyllysine Photo-trapping for Substrate Profiling of Lysine Demethylases” (Journal of the American Chemical Society, 2023).

B1: TPP1_HUMAN (protein, UniProt O14773 196-563, looked up)
Tripeptidyl-peptidase 1: LHLGVTPSVIRKRYNLTSQDVGSGTSNNSQACAQFLEQYFHDSDLAQFMRLFGGNFAHQASVARVVGQQGRGRAGIEASLDVQYLMSAGANISTWVYSSPGRHEGQEPFLQWLMLLSNESALPHVHTVSYGDDEDSLSSAYIQRVNTELMKAAARGLTLLFASGDSGAGCWSVSGRHQFRPTFPASSPYVTTVGGTSFQEPFLITNEIVDYISGGGFSNVFPRPSYQEEAVTKFLSSSPHLPPSSYFNASGRAYPDVAALSDGYWVVSNRVPIPWVSGTSASTPVFGGILSLINEHRILSGRPPLGFLNPRLYQQHGAGLFDVTRGCHESCLDEEVEGQGFCSGPGWDPVTGWGTPNFPALLKTLLNP
B2: TCPQ_HUMAN (protein, UniProt P50990 2-548, looked up)
T-complex protein 1 subunit …: ALHVPKAPGFAQMLKEGAKHFSGLEEAVYRNIQACKELAQTTRTAYGPNGMNKMVINHLEKLFVTNDAATILRELEVQHPAAKMIVMASHMQEQEVGDGTNFVLVFAGALLELAEELLRIGLSVSEVIEGYEIACRKAHEILPNLVCCSAKNLRDIDEVSSLLRTSIMSKQYGNEVFLAKLIAQACVSIFPDSGHFNVDNIRVCKILGSGISSSSVLHGMVFKKETEGDVTSVKDAKIAVYSCPFDGMITETKGTVLIKTAEELMNFSKGEENLMDAQVKAIADTGANVVVTGGKVADMALHYANKYNIMLVRLNSKWDLRRLCKTVGATALPRLTPPVLEEMGHCDSVYLSEVGDTQVVVFKHEKEDGAISTIVLRGSTDNLMDDIERAVDDGVNTFKVLTRDKRLVPGGGATEIELAKQITSYGETCPGLEQYAIKKFAEAFEAIPRALAENSGVKANEVISKLYAVHQEGNKNVGLDIEAEVPAVKDMLEAGILDTYLGKYWAIKLATNAAVTVLRVDQIIMAKPAGGPKPPSGKKDWDDDQND
B3: PUR8_HUMAN (protein, UniProt P30566 2-484, looked up)
Adenylosuccinate lyase: AAGGDHGSPDSYRSPLASRYASPEMCFVFSDRYKFRTWRQLWLWLAEAEQTLGLPITDEQIQEMKSNLENIDFKMAAEEEKRLRHDVMAHVHTFGHCCPKAAGIIHLGATSCYVGDNTDLIILRNALDLLLPKLARVISRLADFAKERASLPTLGFTHFQPAQLTTVGKRCCLWIQDLCMDLQNLKRVRDDLRFRGVKGTTGTQASFLQLFEGDDHKVEQLDKMVTEKAGFKRAFIITGQTYTRKVDIEVLSVLASLGASVHKICTDIRLLANLKEMEEPFEKQQIGSSAMPYKRNPMRSERCCSLARHLMTLVMDPLQTASVQWFERTLDDSANRRICLAEAFLTADTILNTLQNISEGLVVYPKVIERRIRQELPFMATENIIMAMVKAGGSRQDCHEKIRVLSQQAASVVKQEGGDNDLIERIQVDAYFSPIHSQLDHLLDPSSFTGRASQQVQRFLEEEVYPLLKPYESVMKVKAELCL
B4: CBS_HUMAN (protein, UniProt P35520 1-551, looked up)
Cystathionine beta-synthase: MPSETPQAEVGPTGCPHRSGPHSAKGSLEKGSPEDKEAKEPLWIRPDAPSRCTWQLGRPASESPHHHTAPAKSPKILPDILKKIGDTPMVRINKIGKKFGLKCELLAKCEFFNAGGSVKDRISLRMIEDAERDGTLKPGDTIIEPTSGNTGIGLALAAAVRGYRCIIVMPEKMSSEKVDVLRALGAEIVRTPTNARFDSPESHVGVAWRLKNEIPNSHILDQYRNASNPLAHYDTTADEILQQCDGKLDMLVASVGTGGTITGIARKLKEKCPGCRIIGVDPEGSILAEPEELNQTEQTTYEVEGIGYDFIPTVLDRTVVDKWFKSNDEEAFTFARMLIAQEGLLCGGSAGSTVAVAVKAAQELQEGQRCVVILPDSVRNYMTKFLSDRWMLQKGFLKEEDLTEKKPWWWHLRVQELGLSAPLTVLPTITCGHTIEILREKGFDQAPVVDEAGVILGMVTLGNMLSSLLAGKVQPSDQVGKVIYKQFKQIRLTDTLGRLSHILEMDHFALVVHEQIQYHSTGKSSQRQMVFGVVTAIDLLNFVAAQERDQK
B5: LYSC_HUMAN (protein, UniProt P61626 19-148, looked up)
Lysozyme C: KVFERCELARTLKRLGMDGYRGISLANWMCLAKWESGYNTRATNYNAGDRSTDYGIFQINSRYWCNDGKTPGAVNACHLSCSALLQDNIADAVACAKRVVRDPQGIRAWVAWRNRCQNRDVRQYVQGCGV
B6: RAD50_HUMAN (protein, UniProt Q92878 1-1312, looked up)
DNA repair protein RAD50: MSRIEKMSILGVRSFGIEDKDKQIITFFSPLTILVGPNGAGKTTIIECLKYICTGDFPPGTKGNTFVHDPKVAQETDVRAQIRLQFRDVNGELIAVQRSMVCTQKSKKTEFKTLEGVITRTKHGEKVSLSSKCAEIDREMISSLGVSKAVLNNVIFCHQEDSNWPLSEGKALKQKFDEIFSATRYIKALETLRQVRQTQGQKVKEYQMELKYLKQYKEKACEIRDQITSKEAQLTSSKEIVKSYENELDPLKNRLKEIEHNLSKIMKLDNEIKALDSRKKQMEKDNSELEEKMEKVFQGTDEQLNDLYHNHQRTVREKERKLVDCHRELEKLNKESRLLNQEKSELLVEQGRLQLQADRHQEHIRARDSLIQSLATQLELDGFERGPFSERQIKNFHKLVRERQEGEAKTANQLMNDFAEKETLKQKQIDEIRDKKTGLGRIIELKSEILSKKQNELKNVKYELQQLEGSSDRILELDQELIKAERELSKAEKNSNVETLKMEVISLQNEKADLDRTLRKLDQEMEQLNHHTTTRTQMEMLTKDKADKDEQIRKIKSRHSDELTSLLGYFPNKKQLEDWLHSKSKEINQTRDRLAKLNKELASSEQNKNHINNELKRKEEQLSSYEDKLFDVCGSQDFESDLDRLKEEIEKSSKQRAMLAGATAVYSQFITQLTDENQSCCPVCQRVFQTEAELQEVISDLQSKLRLAPDKLKSTESELKKKEKRRDEMLGLVPMRQSIIDLKEKEIPELRNKLQNVNRDIQRLKNDIEEQETLLGTIMPEEESAKVCLTDVTIMERFQMELKDVERKIAQQAAKLQGIDLDRTVQQVNQEKQEKQHKLDTVSSKIELNRKLIQDQQEQIQHLKSTTNELKSEKLQISTNLQRRQQLEEQTVELSTEVQSLYREIKDAKEQVSPLETTLEKFQQEKEELINKKNTSNKIAQDKLNDIKEKVKNIHGYMKDIENYIQDGKDDYKKQKETELNKVIAQLSECEKHKEKINEDMRLMRQDIDTQKIQERWLQDNLTLRKRNEELKEVEEERKQHLKEMGQMQVLQMKSEHQKLEENIDNIKRNHNLALGRQKGYEEEIIHFKKELREPQFRDAEEKYREMMIVMRTTELVNKDLDIYYKTLDQAIMKFHSMKMEEINKIIRDLWRSTYRGQDIEYIEIRSDADENVSASDKRRNYNYRVVMLKGDTALDMRGRCSAGQKVLASLIIRLALAETFCLNCGIIALDEPTTNLDRENIESLAHALVEIIKSRSQQRNFQLLVITHDEDFVELLGRSEYVEKFYRIKKNIDQCSEIVKCSVSSLGFNVH
B7: GLYM_HUMAN (protein, UniProt P34897 30-504, looked up)
Serine …: NAAQTQTGEANRGWTGQESLSDSDPEMWELLQREKDRQCRGLELIASENFCSRAALEALGSCLNNKYSEGYPGKRYYGGAEVVDEIELLCQRRALEAFDLDPAQWGVNVQPYSGSPANLAVYTALLQPHDRIMGLDLPDGGHLTHGYMSDVKRISATSIFFESMPYKLNPKTGLIDYNQLALTARLFRPRLIIAGTSAYARLIDYARMREVCDEVKAHLLADMAHISGLVAAKVIPSPFKHADIVTTTTHKTLRGARSGLIFYRKGVKAVDPKTGREIPYTFEDRINFAVFPSLQGGPHNHAIAAVAVALKQACTPMFREYSLQVLKNARAMADALLERGYSLVSGGTDNHLVLVDLRPKGLDGARAERVLELVSITANKNTCPGDRSAITPGGLRLGAPALTSRQFREDDFRRVVDFIDEGVNIGLEVKSKTAKLQDFKSFLLKDSETSQRLANLRQRVEQFARAFPMPGFDEH

system: KDM4A-I71AzF; assay: CASI: photo-crosslinking with HEK293T cell extracts, StrepTactin enrichment and LC-MS/MS proteomics; assay type: binding, human; details: sheet "Final results but with 0.01";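 further: lysates from HEK293T cells pretreated with a KDM4 inhibitor to raise proteome methylation, affinity-purified after ±UV, gel-resolved, trypsin-digested, with exclusive unique peptides per protein averaged per condition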

Compared with B1, B2 is higher in “Fold change (+UV/-UV)” value: 0 for the first, 1 for the second.

Compared with B3, B4 is higher in “Fold change (+UV/-UV)” value: 0.3333 for the first, 1.4 for the second.

B5 and B6 are the same in “Fold change (+UV/-UV)” value: 200 for the first, 200 for the second.

In the case of B7, the “Fold change (+UV/-UV)” value is reported as 0.3333.
